Results reported in patent publication US20110318377.

T1: Tat ARM peptide (amino acids 45-58) K50A
T1 chain: ISYGRAKRRQRRRP

T2: unmodified Tat ARM peptide (amino acids 45-58)
T2 chain: ISYGRKKRRQRRRP

T3: Tat ARM peptide carrying an acetyl group at position 50
T3 chain: ISYGRKKRRQRRRP

T4: Tat ARM peptide (amino acids 45-58) K51A
T4 chain: ISYGRKARRQRRRP

T5: Tat ARM peptide (amino acids 45-58) K50, 51AA
T5 chain: ISYGRAARRQRRRP

T6: Tat ARM peptide (amino acids 45-58) monomethylated at K51
T6 chain: ISYGRKKRRQRRRP

B1: recombinant Set9 (Upstate) (protein)
chain: MDSDDEMVEEAVEGHLDDDGLPHGFCTVTYSSTDRFEGNFVHGEKNGRGKFFFFDGSTLEGYYVDDALQGQGVYTYEDGGVLQGTYVDGELNGPAQEYDTDGRLIFKGQYKDNIRHGVCWIYYPDGGSLVGEVNEDGEMTGEKIAYVYPDERTALYGKFIDGEMIEGKLATLMSTEEGRPHFELMPGNSVYHFDKSTSSCISTNALLPDPYESERVYVAESLISSAGEGLFSKVAVGPNTVMSFYNGVRITHQEVDSRDWALNGNTLSLDEETVIDVPEPYNHVSKYCASLGHKANHSFTPNCIYDMFVHPRFGPIKCIRTLRAVEADEELTVAYGYDHSPPGKSGPEAPEWYQVELKAFQATQQK
B2: recombinant GST-p300 HAT (protein)
chain: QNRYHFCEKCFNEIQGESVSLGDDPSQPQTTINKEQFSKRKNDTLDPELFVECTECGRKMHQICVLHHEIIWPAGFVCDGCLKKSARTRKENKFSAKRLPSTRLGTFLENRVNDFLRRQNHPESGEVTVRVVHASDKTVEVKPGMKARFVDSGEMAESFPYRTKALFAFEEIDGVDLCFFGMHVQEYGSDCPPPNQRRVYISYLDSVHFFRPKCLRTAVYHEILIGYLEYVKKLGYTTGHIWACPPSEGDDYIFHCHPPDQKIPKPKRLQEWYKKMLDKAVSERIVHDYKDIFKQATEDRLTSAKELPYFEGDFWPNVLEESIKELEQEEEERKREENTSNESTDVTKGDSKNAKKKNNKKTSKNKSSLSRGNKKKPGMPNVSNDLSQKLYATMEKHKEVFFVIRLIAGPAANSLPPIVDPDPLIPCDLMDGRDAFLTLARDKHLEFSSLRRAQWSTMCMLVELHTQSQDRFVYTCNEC

Key:
[1] = molecular target: T1, Tat ARM peptide (amino acids 45-58) K50A
[2] = molecular target: T2, unmodified Tat ARM peptide (amino acids …)
[3] = molecular target: T3, Tat ARM peptide carrying an acetyl …
[4] = molecular target: full-length synthetic Tat protein (72 amino acids), unmodified
[5] = molecular target: T4, Tat ARM peptide (amino acids 45-58) K51A
[6] = molecular target: histones purified from calf thymus
[7] = molecular target: T5, Tat ARM peptide (amino acids 45-58) …
[8] = molecular target: T6, Tat ARM peptide (amino acids 45-58) …

Row | Protein | in vitro methylation with radiolabeled SAM, autoradiography (recombinant GST-IκBα) | in vitro methylation with radiolabeled SAM; MALDI-TOF [1] | MALDI-TOF mass shift after methylation reaction [2] | radioactive in vitro methylation of short Tat peptides [2] | in vitro methylation with radiolabeled SAM; MALDI-TOF [3] | in vitro methylation with radiolabeled SAM, autoradiography [4] | in vitro methylation with radiolabeled SAM; MALDI-TOF [5] | in vitro methylation with radiolabeled SAM, autoradiography [6] | in vitro methylation with radiolabeled SAM [7] | in vitro acetylation with 14C-AcCoA, autoradiography [2] | in vitro acetylation with 14C-AcCoA, autoradiography [8]
1 | B1 | methylation by Set9 was not observed with another recombinant protein, GST-IκBα | mutation of K50 alone had no effect | a shift of 14 Da was detected in the methylated ARM peptide, corresponding to the addition of a single methyl group | Methylation was observed with one peptide (45-58 amino acids) corresponding to the arginine-rich motif (ARM) of Tat | No methylation signal was observed | The Tat protein was methylated in response to increasing amounts of Set9 enzyme | Methylation by Set9 was abrogated when K51 or both lysines were mutated | Set9 also methylated purified histones, predominantly histone H3, a known substrate of Set9 | Methylation by Set9 was abrogated when K51 or both lysines were mutated | – | –
2 | B2 | – | – | – | – | – | – | – | – | – | Acetylation by p300 occurred regardless of the methylation status of K51 | Acetylation by p300 occurred regardless of the methylation status of K51
